According to paper PMC4251946, “The mechanism of H171T resistance reveals the importance of Nδ-protonated His171 for the binding of allosteric inhibitor BI-D to HIV-1 integrase” (Retrovirology, 2014):

Legend:
[1] = target: H171T HIV-1 integrase (IN) (HIV-1); assay: SEC; Superdex 200 10/300 GL; 20 mM HEPES pH 6.8, 750 mM NaCl, 10 mM MgSO4, 0.2 mM EDTA, 5 mM BME, 5% glycerol, 200 μM ZnCl2; 4°C; tetramer and monomer peaks
[2] = target: H171T HIV-1 integrase (IN) (HIV-1); assay: AlphaScreen or HTRF
LEDGF/p75 = target: T1, LEDGF/p75 (UniProt O75475 1-530); assay: AlphaScreen or HTRF; conditions: both partners purified
T1 construct: source: E. coli, purified as described previously [37]; not shown: FLAG, C-terminal, kept

H171T HIV-1 integrase (IN) (enzyme)
stoichiometry N [1]: 4

LEDGF/p75 (from UniProt O75475 1-530) (natural protein)
Kd [2]: 10.5 nM

B1: WT HIV-1 integrase (IN) (enzyme)
chain: FLDGIDKAQEEHEKYHSNWRAMASDFNLPPVVAKEIVASCDKCQLKGEAMHGQVDCSPGIWQLDCTHLEGKVILVAVHVASGYIEAEVIPAETGQETAYFLLKLAGRWPVKTVHTDNGSNFTSTTVKAACWWAGIKQEFGIPYNPQSQGVIESMNKELKKIIGQVRDQAEHLKTAVQMAVFIHNFKRKGGIGGYSAGERIVDIIATDIQTKELQKQITKIQNFRVYYRDSRDPVWKGPAKLLWKGEGAVVIQDNSDIKVVPRRKAKIIRDYGKQMAGDDCVASRQDED
notes: also called WT IN; source: E. coli, purified as described previously [37]; not shown: 6xHis, N-terminal, kept
Kd (LEDGF/p75): 3.3 ± 0.3 nM
